# Assay results taken from patent US20260263566A1 (REALTA, published 2026).
# Ends that are not written are not given here. dPEG24 = 24 PEG moieties, at the C-terminus
# Molecular target: T1, Human neutrophil myeloperoxidase (MPO), purified (human, UniProt P05164 165-745, limits assumed)
# T1 sequence (looked up): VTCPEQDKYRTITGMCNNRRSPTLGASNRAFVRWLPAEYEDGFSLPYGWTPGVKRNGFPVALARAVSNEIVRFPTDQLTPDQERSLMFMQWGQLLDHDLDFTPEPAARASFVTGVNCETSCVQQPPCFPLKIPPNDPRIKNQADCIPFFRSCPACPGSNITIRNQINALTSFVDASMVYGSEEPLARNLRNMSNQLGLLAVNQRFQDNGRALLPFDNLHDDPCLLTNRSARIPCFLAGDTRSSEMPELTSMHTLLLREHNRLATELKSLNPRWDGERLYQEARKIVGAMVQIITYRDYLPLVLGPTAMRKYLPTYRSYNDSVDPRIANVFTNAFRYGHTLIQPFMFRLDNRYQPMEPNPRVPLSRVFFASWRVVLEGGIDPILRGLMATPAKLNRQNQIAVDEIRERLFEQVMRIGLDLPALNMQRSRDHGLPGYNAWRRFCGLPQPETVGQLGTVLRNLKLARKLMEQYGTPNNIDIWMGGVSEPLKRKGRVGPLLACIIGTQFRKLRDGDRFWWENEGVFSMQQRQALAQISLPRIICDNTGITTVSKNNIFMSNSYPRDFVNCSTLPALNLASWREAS
# Assay: cell-based or functional assay
binder,measurement,value
IALILEPICCQERAA-dPEG24 (cysteine pairing not given here) [PA-dPEG24 (IALILEPICCQERAA-dPEG24)],"peroxidase activity by TMB in peritoneal wash supernatant (rat; 0.1 mg purified MPO IP, then 20 mg PA-dPEG24 IP, 2 hours)",5 fold decrease
